Values of other authors in paper PMC5523132 (ACS chemical biology, 2016).

Conditions: cited from earlier work

Row | Compound | clearance half-life (in the rat) | half-life (adult rats)
1 | RSA: rat serum albumin | approx. 48 hours | –
2 | O=C([O-])CN1CCN(CC(=O)[O-])CCN(CC(=O)[O-])CCN(CC(=O)[O-])CC1.[Gd+3] [[Gd•DOTA], reference compound] | – | roughly 19 minutes
